Source: patent US20220348651A1 (Novartis, published 2022)
Where a chain is given by its changes, count along the chain named.

B1: ANTI-HUMAN ENTPD2 MAB1 (antibody, human IgG1, kappa)
heavy: not shown
light: DIQLTQSPSSLSASVGDRVTITCSASSSVSYIHWFQQKPGKAPKLLIYSTSNLASGVPSRFSGSGSGTFFTLTISSLQPEDFATYFCHQWSSYPWTFGQGTKVEIKRTVAAPSVFIFPPSDEQLKSGTASVVCLLNNFYPREAKVQWKVDNALQSGNSQESVTEQDSKDSTYSLSSTLTLSKADYEKHKVYACEVTHQGLSSPVTKSFNRGEC
notes: humanized from mAb17; human IgG1, kappa; also called anti-ENTPD2 mAb1
B2: ANTI-HUMAN ENTPD2 MAB2 (antibody, human IgG1, kappa)
heavy: not shown
light: EIVLTQSPATLSASPGERITLSCSASSSVSYIHWYQQKPGQAPRLLIYSTSNLASGIPARFSGSGSGTFYTLTISSVEPEDAAVYYCHQWSSYPWTFGGGTKLEIKRTVAAPSVFIFPPSDEQLKSGTASVVCLLNNFYPREAKVQWKVDNALQSGNSQESVTEQDSKDSTYSLSSTLTLSKADYEKHKVYACEVTHQGLSSPVTKSFNRGEC
notes: humanized from mAb17; human IgG1, kappa; also called Anti-ENTPD2 mAb2
B3: ANTI-HUMAN ENTPD2 MAB3 (antibody, human IgG1, kappa, V domains shown)
VH: QVQLVQSGAEVVKPGASVKISCKASGYTFTDYNMDWVKQAPGQRLEWIGDINPKYDISTYNQQFKGKATITVDTSASTAYMELSSLRSEDTAVYYCARRGFFLYYGINYYYFDVWGQGTLVTVSS
VL: EIVLTQSPATLSASPGERITLSCSASSSVSYIHWYQQKPGQAPRLLIYSTSNLASGIPARFSGSGSGTFYTLTISSVEPEDAAVYYCHQWSSYPWTFGGGTKLEIKR
notes: humanized from mAb17; human IgG1, kappa; also called Anti-ENTPD2 mAb3
B4: ANTI-HUMAN ENTPD2 MAB7 (antibody, human IgG1, kappa)
heavy: not shown
light: B2 light with R18E
notes: humanized from mAb17; human IgG1, kappa; also called Anti-ENTPD2 mAb7
B5: ANTI-HUMAN ENTPD2 MAB4 (antibody, human IgG1, kappa, V domains shown)
VH: QIQLQESGPGLVKPSQTLSLTCTVSGYSITSGYYWNWIRQHPGKGLEWIGYISYDADNNYNPSLKNRVTISRDTSKNQFSLKLSSVTAADTAVYYCAGGYYRYGLGSYRGSYYYVMDYWGQGTTVTVSS
VL: ETVLTQSPATLSVSPGERATISCKASQSVDYEGHSYMNWYQQKPGQAPRLLIYAASNLESGIPARFSGSGSGTDFTLTISSVEPEDAATYYCQQSNEDPPTFGGGTKLEIKR
notes: humanized and optimized from mAb16; human IgG1, kappa; also called Anti-ENTPD2 mAb4
B6: ANTI-HUMAN ENTPD2 MAB6 (antibody, human IgG1, kappa, V domains shown)
VH: B5 VH with I2V, I49M, V68I, R109S
VL: DTQMTQSPSSLSVSVGDRATITCKASQSVDYEGHSYMNWYQQKPGKAPKLLIYAASNLESGVPSRFSGSGSGTDFTLTISSVQPEDFATYYCQQSNEDPPTFGGGTKLEIKR
notes: humanized and optimized from mAb16; human IgG1, kappa; also called Anti-ENTPD2 mAb6
B7: ANTI-HUMAN ENTPD2 MAB5 (antibody, human IgG1, kappa, V domains shown)
VH: B5 VH
VL: B5 VL with E32D, H34N
notes: humanized and optimized from mAb16; human IgG1, kappa; also called Anti-ENTPD2 mAb5

Biological target: T1, recombinant monomeric mouse ENTPD2 extracellular domain (residues 29-462) with His6 tag (mouse, UniProt O55026 29-462)
T1 sequence: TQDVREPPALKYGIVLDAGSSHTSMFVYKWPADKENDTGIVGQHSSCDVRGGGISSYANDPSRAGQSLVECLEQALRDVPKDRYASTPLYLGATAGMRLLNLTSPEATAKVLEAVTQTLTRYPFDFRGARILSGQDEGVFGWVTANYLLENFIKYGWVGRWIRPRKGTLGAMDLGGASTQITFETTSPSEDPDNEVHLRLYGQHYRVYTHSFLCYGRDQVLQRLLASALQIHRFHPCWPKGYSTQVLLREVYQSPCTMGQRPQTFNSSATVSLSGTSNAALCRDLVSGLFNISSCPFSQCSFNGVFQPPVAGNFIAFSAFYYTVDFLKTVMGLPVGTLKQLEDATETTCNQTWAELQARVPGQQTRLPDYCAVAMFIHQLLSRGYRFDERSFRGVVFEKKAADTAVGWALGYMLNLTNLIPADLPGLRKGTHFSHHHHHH
Test: SPR Biacore

Row | Binder | binding result
1 | B1 | no binding
2 | B2 | no binding
3 | B3 | no binding
4 | B4 | no binding
5 | B5 | no binding
6 | B6 | no binding
7 | B7 | no binding

Biological target: T2, human ENTPD2 expressed on cells (human, UniProt Q9Y5L3 1-495)
T2 sequence: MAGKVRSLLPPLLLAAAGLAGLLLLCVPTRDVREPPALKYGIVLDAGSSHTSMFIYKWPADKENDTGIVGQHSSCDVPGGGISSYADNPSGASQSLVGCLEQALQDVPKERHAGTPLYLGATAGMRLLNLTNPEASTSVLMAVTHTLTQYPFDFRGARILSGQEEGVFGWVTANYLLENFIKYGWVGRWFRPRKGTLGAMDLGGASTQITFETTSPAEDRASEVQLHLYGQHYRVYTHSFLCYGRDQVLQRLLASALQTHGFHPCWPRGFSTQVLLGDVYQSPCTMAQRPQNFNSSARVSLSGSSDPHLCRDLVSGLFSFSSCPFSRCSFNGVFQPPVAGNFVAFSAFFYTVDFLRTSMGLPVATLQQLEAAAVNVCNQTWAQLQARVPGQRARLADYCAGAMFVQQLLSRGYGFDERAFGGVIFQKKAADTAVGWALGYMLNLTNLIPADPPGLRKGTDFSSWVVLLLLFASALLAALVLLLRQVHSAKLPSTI
Test: cell-based or functional assay

Row | Binder | % inhibition, Human ENTPD2 NIH/3T3 Assay [%] | % inhibition, RKO Assay [%] | IC50, Human ENTPD2 NIH/3T3 Assay [nM] | IC50, RKO Assay [nM]
8 | B1 | 92 | 97 | 1.1 | 0.8
9 | B2 | 98 | 86 | 1.4 | 0.8
10 | B3 | 91 | 95 | 1.8 | 1.6
11 | B4 | 95 | 92 | 0.8 | 0.6
12 | B5 | 87 | 74 | 0.2 | 0.2
13 | B6 | 95 | 90 | 0.3 | 0.2
14 | B7 | 95 | 80 | 0.3 | 0.2

Biological target: T3, cyno ENTPD2 expressed on NIH/3T3 cells (cynomolgus macaque, UniProt Q9Y5L3 1-495 (human entry))
T3 chain: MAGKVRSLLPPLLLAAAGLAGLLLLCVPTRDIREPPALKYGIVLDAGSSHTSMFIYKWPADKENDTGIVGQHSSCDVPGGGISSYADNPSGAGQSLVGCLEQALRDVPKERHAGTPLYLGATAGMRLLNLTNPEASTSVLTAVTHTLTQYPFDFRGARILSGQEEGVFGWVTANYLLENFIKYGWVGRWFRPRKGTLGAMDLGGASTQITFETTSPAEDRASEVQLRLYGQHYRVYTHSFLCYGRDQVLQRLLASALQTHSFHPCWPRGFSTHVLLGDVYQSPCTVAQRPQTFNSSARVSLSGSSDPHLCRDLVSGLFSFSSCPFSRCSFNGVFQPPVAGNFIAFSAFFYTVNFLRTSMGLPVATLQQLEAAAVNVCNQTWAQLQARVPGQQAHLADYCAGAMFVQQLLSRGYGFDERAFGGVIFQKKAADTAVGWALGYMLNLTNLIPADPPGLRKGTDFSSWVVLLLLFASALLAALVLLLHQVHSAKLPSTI
Test: cell-based or functional assay

Row | Binder | % inhibition, Cyno ENTPD2 NIH/3T3 Assay [%] | IC50, Cyno ENTPD2 NIH/3T3 Assay [nM]
15 | B1 | 91 | 4.1
16 | B2 | 84 | 2.7
17 | B3 | 84 | 5.8
18 | B4 | 82 | 2.7
19 | B5 | 75 | 2.2
20 | B6 | 73 | 3.3
21 | B7 | 80 | 1.5

Biological target: T3, cyno ENTPD2 expressed on NIH/3T3 cells
Test: flow cytometry, NIH3T3 cyno ENTPD2 cells

Row | Binder | EC50 [nM]
22 | B1 | 3.3
23 | B2 | 4.2
24 | B3 | 5.4
25 | B4 | 0.8
26 | B5 | 6.1
27 | B6 | 7
28 | B7 | 5.2

Biological target: T4, recombinant cyno ENTPD2 extracellular domain (residues 29-462) with C-terminal Avi-His6 tag (cynomolgus macaque, UniProt Q9Y5L3 29-462 (human entry))
T4 construct: also called cynomologus (cyno) ENTPD2 ECD
T4 chain (part 1 of 2): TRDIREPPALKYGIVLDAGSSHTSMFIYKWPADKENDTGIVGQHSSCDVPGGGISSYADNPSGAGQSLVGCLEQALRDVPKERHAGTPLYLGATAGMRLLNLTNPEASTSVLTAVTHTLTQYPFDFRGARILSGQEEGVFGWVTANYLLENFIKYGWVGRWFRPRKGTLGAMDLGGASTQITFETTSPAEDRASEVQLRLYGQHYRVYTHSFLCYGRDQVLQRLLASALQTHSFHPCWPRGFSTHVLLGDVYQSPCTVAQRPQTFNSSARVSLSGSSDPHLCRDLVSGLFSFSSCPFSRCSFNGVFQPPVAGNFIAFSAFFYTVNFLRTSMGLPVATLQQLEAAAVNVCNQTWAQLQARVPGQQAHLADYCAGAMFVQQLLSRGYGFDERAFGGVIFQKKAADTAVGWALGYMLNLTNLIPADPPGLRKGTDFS
T4 chain (part 2 of 2): HHHHHH
Test: SPR Biacore, mAb captured, ECD analyte, 25C
Protocol: Biacore Screening: Affinity was measured by determining the kinetic rate constants using surface plasmon resonance (SPR) on a Biacore T200 or T100 with the T200 sensitivity upgrade instrument (Biacore, GE Healthcare). Antibodies were captured on CM5 sensor chips (Biacore, GE Healthcare) prepared with a mouse anti-human IgG Fc antibody (ThermoFisher catalogue #05-4200) amine coupled to the surface. […] ENTPD2 analytes were allowed to associate for 180 s and dissociate for up to 1800 s depending on the off-rate of the antibody at a flow rate of 30 μL/min. The running buffer was PBS pH 7.2 (prepared from a Corning 10X stock, cat#46-013-CM)+0.05% Tween 20. […] The raw data were analyzed using Biacore T200 Evaluation Software version 1.0 and fit to a 1:1 binding model, with all parameters set to fit globally except for RI, which was set to fit locally.

Row | Binder | Kd [nM] | koff [s⁻¹] | kon [M⁻¹ s⁻¹]
29 | B1 | 3.4 | 0.0012 | 360000
30 | B2 | 2.8 | 0.0012 | 430000
31 | B3 | 2.2 | 0.00098 | 450000
32 | B4 | 1.1 | 0.0012 | 1.2e+06
33 | B5 | 42.1 | 0.0057 | 140000
34 | B6 | 35.6 | 0.01 | 290000
35 | B7 | 10.7 | 0.003 | 290000

Biological target: T2, human ENTPD2 expressed on cells
Test: flow cytometry, RKO cells (endogenous ENTPD2)
Protocol: FACS screening: Specific binding of candidate antibodies to endogenously expressed ENTPD2 was assessed by flow cytometry. […] Geometric mean fluorescence intensity was calculated on live single cells using FlowJo software.

Row | Binder | EC50 [nM]
36 | B1 | 0.9
37 | B2 | 1.3
38 | B3 | 2.1
39 | B4 | 0.4
40 | B5 | 0.5
41 | B6 | 0.4
42 | B7 | 0.4
